Data as given in article PMC10600506.

Molecular target: SARS-CoV-2 Omicron BA.1 Spike receptor-binding domain (SARS-CoV-2 Omicron BA.1)
Assay: BLI; RBD1 with hACE2, 'with the same assay condition' as Nb4 with RBD1

Sequence of angiotensin-converting enzyme 2, extracellular (Q9BYF1 20-615): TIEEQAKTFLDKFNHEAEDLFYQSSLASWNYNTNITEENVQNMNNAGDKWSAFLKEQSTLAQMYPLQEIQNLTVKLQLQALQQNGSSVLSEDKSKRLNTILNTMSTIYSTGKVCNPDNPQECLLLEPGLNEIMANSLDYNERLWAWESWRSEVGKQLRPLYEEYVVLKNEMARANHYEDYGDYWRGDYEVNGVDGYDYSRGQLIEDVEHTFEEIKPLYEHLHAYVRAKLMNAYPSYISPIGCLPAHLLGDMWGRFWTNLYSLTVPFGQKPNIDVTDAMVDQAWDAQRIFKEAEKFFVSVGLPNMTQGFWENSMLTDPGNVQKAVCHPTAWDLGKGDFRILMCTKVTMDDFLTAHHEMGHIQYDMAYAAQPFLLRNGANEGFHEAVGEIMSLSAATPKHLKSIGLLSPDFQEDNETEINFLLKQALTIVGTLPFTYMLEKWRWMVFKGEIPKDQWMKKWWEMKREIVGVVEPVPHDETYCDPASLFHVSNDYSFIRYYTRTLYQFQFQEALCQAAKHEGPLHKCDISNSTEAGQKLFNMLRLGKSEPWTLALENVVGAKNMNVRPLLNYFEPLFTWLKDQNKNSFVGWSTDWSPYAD

Substance “angiotensin-converting enzyme 2, extracellular (from UniProt Q9BYF1 20-615) (receptor)” has a Kd of 9 nM.
